Molecular target: human MUC17 (huMUC17), membrane form (human, UniProt Q685J3 26-4493)
Experiment: immunohistochemistry on tissue sections

B1: anti-huMUC17 4C11 IHC antibody (antibody, mouse IgG2a, kappa, V domains shown)
VH: EVQLQQSGPELVKPGDSVKISCKASGYSFTGNFLNWVMQSHGKSLEWIGRITPYSGETFYNQKFKDKATLTVDISSSIAHMELRSLTSEDSAVYYCARGVTTEVSHYYAMDYWGQGTAVTVSS
VL: DIQMNQSPSSLSASLGDTITITCHASQNINLWLHWYQQKPGNIPKLLIFKASNLHTGVPLRFSGSGSGTGFTLTISSLQPEDIATYFCQQGQSYPLTFGGGTKLEIKR
notes: Mouse hybridoma-derived monoclonal antibody; also called 4C11 antibody; the antibody of the invention
  binding result: binds

— US20230129844A1 (Amgen, published 2023)
